Experimental data as given in patent US12012457 (SYNTHEKINE, dated 2024).

biological target: T1, extracellular domain of human IL23R (hIL23R ECD) (human, UniProt Q5VWK5 24-355); assay: periplasmic extract ELISA (PE-ELISA), 96-well plate, colorimetric
T1 construct: also called hIL-23 ECD antigen
T1 sequence: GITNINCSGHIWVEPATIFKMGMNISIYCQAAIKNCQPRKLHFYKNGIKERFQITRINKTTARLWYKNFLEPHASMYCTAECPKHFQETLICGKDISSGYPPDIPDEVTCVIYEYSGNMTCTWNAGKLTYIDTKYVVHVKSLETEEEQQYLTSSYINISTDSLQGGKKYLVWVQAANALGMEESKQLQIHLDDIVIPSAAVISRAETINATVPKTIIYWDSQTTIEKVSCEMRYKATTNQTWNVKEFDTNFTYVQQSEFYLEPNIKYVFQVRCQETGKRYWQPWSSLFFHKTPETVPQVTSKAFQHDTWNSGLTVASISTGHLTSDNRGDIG

Row | Binder | binding result
1 | hIL23R VHH3 (VHH) VHH: QVQLQESGGGSVQAGESLRLSCAASGYTYCTYDMTWYRQAPGKKREFVSGIHSDGTTSYADSVKGRFTISQDNAENTVYLQMNSLKPEDTAMYYCKTDPIATITRRCDSYWGQGTQVTVSS | binds
2 | hIL23R VHH2 (VHH) VHH: QVQLQESGGGSVQAGGSLRLSCAASGYTYCSYDMSWYRQAPGKKREFVSSFNSDGSTSYADSVKGRFTISQDNAKNTVYLQMNSLKPEDTAMYYCKTDPHADWGAPCGGDYWGQGTQVTVSS | binds
3 | hIL23R VHH4 (VHH) VHH: QVQLQESGGGSVQAGGSLRLSCAASGSTYCTYDMTWYRQAPGKRREFVSAINSDGSTSYADSVKGRFTISQDNAKNTVYLQMNSLKPEDTAMYYCKTDPNSGWGAPCGGDYWGQGTQVTVSS | binds
4 | hIL23R VHH13 (VHH) VHH: QVQLQESGGGSVQAGGSLRLSCAASGYTYCSYDMKWYRQAPGKKREFVSAIDSDGSTSYADSVKGRFTISQDNAKNTVYLQMNSLKPEDTAMYYCKTEGTIPVGVCPNYWGQGTQVTVSS | binds
5 | hIL23R VHH8 (VHH) VHH: QVQLQESGGDSVQAGGSLRLSCAASGYTYCSYDMKWYRQAPGKEREFVSGIDSDGSISYADSVKGRFTISQDNAKNTVYLQMNSLKPEDTAMYYCKTEGTIPVGACPNYWGQGTQVTVSS | binds
6 | hIL23R VHH14 (VHH) VHH: QVQLQESGGGLVQPGGSLRLSCAASGYTYCSYDMKWYRQAPGKKREFVSAIDSDGSTSYADSVKGRFTISQDNAKNTVYLQMNSLKPEDTAMYYCKTEGTVPVGVCPNYWGQGTQVTVSS | binds
7 | hIL23R VHH15 (VHH) VHH: QVQLQESGGGSVQAGGSLRLSCAASPGTYTSRYMGWFRQAPGKEREGVATIWPAGGNTVYADSVKGRFTISQDGAKKTVYLQMNSLKPEDTAMYYCAAAKYGGTSLAPYTYNYWGQGTQVTVSS | binds
8 | hIL23R VHH19 (VHH) VHH: QVQLQESGGGSVQAGGSLRLSCAASGYTSCSYDMSWYRQAPGKKREFVSAIHSDGTTSYADSMKGRFTISQDNAKNTVYLQMNSLKPEDTAMYYCKTDPNYSDHVCPPYWGRGTQVTVSS | binds
9 | hIL23R VHH17 (VHH) VHH: QVQLQESGGGSVQAGGSLRLSCTASGYTFSTMKYMGWFRQAPGKEREGVAAIWIAAGNTYYADSVKGRFTISQDNTKNTVYLQMNSLKPEDTALYYCAAARYGFVPSTWYLPERYNYWGQGTQVTVSS | binds
10 | hIL23R VHH12 (VHH) VHH: QVQLQESGGGSVQAGGSLRLSCAASGYTSSSRCMGWFRQAPGKEREGVARIYTPTRTTWYADSVKGRFTISQDNAKNTVYLEMASLKPEDTAKYFCAAGASCAVDLFSYWGQGTQVTVSS | binds
11 | hIL23R VHH6 (VHH) VHH: QVQLQESGGGLVQPGGSLRLSCAASGYTYCSYDMGWYRQAPGKKRKFVSSINSDGTTSYADSVKGRFTISQDNAKNTVYLQMNSLKPEDTAMYYCKTDPQTRPGKPCADYWGQGTQVTVSS | binds
12 | hIL23R VHH9 (VHH) VHH: QVQLQESGGGLVQAGGSLRLSCAASGYTYCSYDMSWYRQAPGKERKFVSSINSDGTTSYADSVKGRFTISQDNAKNTVYLQMNSLKPEDTAMYYCKTDPQTRPGKPCADYWGQGTQVTVSS | binds
13 | hIL23R VHH1 (VHH) VHH: QVQLQESGGGSVQAGGSLRLSCAASGYTYCSYDMSWYRQAPGKKREFVSAFNSDGTTSYADSVKGRFTISQDKAKNTVYLQMNSLKPEDTAMYYCKTDPHVQSSGGYCPPYWGQGTQVTVSS | binds
14 | hIL23R VHH5 (VHH) VHH: QVQLQESGGGSVQAGGSLRLSCAASGYTYCSYDMSWYRQAPGKKREFVSAIASDGSTSYADSLKGRFTISQDNAKNTVYLQMNSLKPEDTAMYYCKTDPHVQSSGGYCPPYWGQGTQVTVSS | binds
15 | hIL23R VHH10 (VHH) VHH: QVQLQESGGGSVQAGGSLKLSCAASGYTYCNYDIAWYRQAPGKERKFVSAIASDGSTSYADSVKGRFTISQDNAKNTVYLQMNSLKPEDTAMYYCKTDPIATMTRRCDPYWGQGTQVTVSS | binds
16 | hIL23R VHH7 (VHH) VHH: QVQLQESGGGSVQAGGSLRLSCAASGYTYCNYDIAWYRQAPGKERKFVSAIASDGITSYADSVKGRFTISQDNAKNTVYLQMNSLKPEDTAMYYCKTDPISTITRICDPYWGQGTQVTVSS | binds
17 | hIL23R VHH16 (VHH) VHH: QVQLQESGGGSVEAGGALTLSCVASGYTYCNYDIAWYRQAPGKERKFVSAIASDGSTSYADSVKGRFTISQDNAKNTVYLQMNSLKPEDTAMYYCKTDPIATMTRRCDPYWGQGTQVTVSS | binds
18 | hIL23R VHH11 (VHH) VHH: QVQLQESGGGSVQAGGSLRLSCAASGYTYCSYDMTWYRQAPGKKREFVSAIDSDGSTSYADSVKGRFTISQDNAKNTVYLQMNSLKPEDTAMYYCKTDPIATISRRCDSYWGQGTQVTVSS | binds
19 | hIL23R VHH18 (VHH) VHH: QVQLQESGGGSVQAGGSLRLACAASGYTYCNYDIAWYRQAPGKERKFVSAIASDGSTSYADSVKGRFTISQDNAKNTVYLQMNSLKPEDTAMYYCKTDPIATMTRRCDPYWGQGTQVTVSS | binds

biological target: T2, extracellular domain of mouse IL23R (mIL23R ECD) (mouse, UniProt Q8K4B4 24-374); assay: as above
T2 construct: also called mIL-23 ECD antigen
T2 sequence: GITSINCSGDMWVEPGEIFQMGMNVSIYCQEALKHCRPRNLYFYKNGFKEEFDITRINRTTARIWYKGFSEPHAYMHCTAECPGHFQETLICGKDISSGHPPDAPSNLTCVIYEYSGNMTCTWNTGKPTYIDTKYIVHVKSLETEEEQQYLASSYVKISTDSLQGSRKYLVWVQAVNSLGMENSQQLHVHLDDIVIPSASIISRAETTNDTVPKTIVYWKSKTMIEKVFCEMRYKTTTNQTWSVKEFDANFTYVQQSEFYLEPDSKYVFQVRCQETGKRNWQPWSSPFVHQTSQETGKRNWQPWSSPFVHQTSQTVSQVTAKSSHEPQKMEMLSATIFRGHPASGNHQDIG

Row | Binder | binding result
20 | mIL23R VHH41 (VHH) VHH: QVQLQESGGGLVQPGGSLRLTCAASGFTFSTSAMTWVRQAPGKGLDWVSGIDSGGTTVYADSVKGRFTISKDNAKNTLYLQMNSLKTEDTAVYYCATGLPWGNTWRTRGQGTQVTVSS | binds
